Results as given in US20030054411A1, “GPR motifs and uses thereof” (priority 2001, published 2003).

B1: AGS3: Activator of G-protein Signalling 3; bioactive 74 amino acid fragment isolated in yeast screen, tested as GST fusion (protein)
chain: MLIKYQSSRIDDQRCPPPDVLPRGPTMPDEDFFSLIQRVQAKRMDEQRVDLAGSPDQEASGLPDPRQQCPPGAS
modifications: left off: a dimerising Fc or GST

How the values were obtained:
[1] = system: brain Gβγ; experiment: GST fusion protein interaction with purified brain Gβγ; type: binding, bovine; details: GST fusion protein ~300 nM, Gβγ 40 nM
From the text: (A) Bioactivity of cDNA #37 and 53 in yeast strains expressing different Gα subunits. The Gpa1, Giα2Gpa1(1-41), Giα3Gpa1(1-41) and Gα16Gpa1(1-41) yeast strains expressed similar amounts of G-protein as determined by immunoblotting with Gpa1-specific antisera. Each series of experiments include data obtained in the absence of Gα to indicate the signal obtained when the action of Gβγ is not limited by reformation of heterotrimer. Data are presented as the mean±S.E.M of three experiments with duplicate determinations. (B) Interaction of AGS2 and AGS3 with G-proteins. AGS2 and the bioactive AGS3 peptide (74 amino acids) beginning at the first in frame methionine were generated as GST-fusion proteins in bacteria and purified using a glutathione affinity matrix. AGS2 and AGS3 GST fusion proteins were incubated with G-protein subunits (Gα=60-80 nM, Gβγ=40 nM, fusion protein=˜300 nM, total volume=250 ul) for 12 hrs at 4° C. GDP=10 uM. GTPγS=10 uM plus 5 mM MgCl2. […] Giα2 was generated in Sf9 cells as an amino terminal his6-tagged protein and was detected on membrane transfers using anti-Xpress antisera (Invitrogen). Bovine brain Gβγ was detected on membrane transfers with Gβ antisera. […]
(§1) Immunoblotting and G-protein interaction assays. […] Bound proteins were detected by immunoblotting membrane transfers with specific antisera. […]

[2] = system: Giα3 in DDT1-MF2 cell lysates; experiment: GST-AGS3 interaction with endogenous Giα3 in cell lysates; type: binding; details: 30 uM GDP or GTPγS
From the text: A) Sequence of full length rat AGS3. The shaded and overlined sequences represent the tetratricopeptide repeat motif and a repeated segment of amino acids (I-IV), respectively, as discussed in the text. The underlined amino acids indicate the fragment (cDNA #53) isolated in the original yeast screen. B) The four repeat domains in the carboxyl terminus half of AGS3, human LGN, the predicted C. elegans protein and related sequences identified by the motif search program MEME were aligned and used to define a consensus sequence as described in the Examples. Right panel—Interaction of wild type AGS3 and AGS3 mutants with Giα2 in mammalian cell extracts. The AGS3 eDNA isolated in the yeast screen and shown to interact with Gα subunits (FIG. 2B) was modified by site-directed mutagenesis to disrupt conserved residues within the GPR motif. The number of the amino acids altered in the mutant constructs (F8R, Q15A and R23F) refers to their position in the sequence found in the left panel aligning the conserved domains. […] Giα subunits were detected on membrane transfers with the Giα3 antibody and Gβ was detected with an amino terminus antibody. […]
as §1

Molecule | interaction with brain Gβγ [1] | nucleotide preference of interaction with Gα in crude cell lysate [2]
AGS2: Activator of G-protein Signalling 2, protein identical to mouse Tctex1, isolated from NG108-15 cDNA library | directly bound | –
B1 | did not interact | preferentially interacted with GαGDP versus GTPγS
